Test results taken from the DeepSol protein solubility set.

assay: soluble on expression in E. coli; label from the status in PepcDB or PDB records

Sequence	soluble on expression in E. coli
MGSSHHHHHHSSGLVPRGSHMKGDKRRDIRDILLHDETLFRNMNAFDPDYVPENYRYRESQMEALAVCIRPALRNGRPVNAVILGSCATGKTTAIKKIFEMVESTSEGVVCCYINCQLHTTRFGIFSQIYSKIFGHQPPETGVPFSRIYQTIMQHLASEKRALVVALDDINHLFYSKNANKVLYDILRAHEVFEGVRTGVFAVLSDIEFRYALDKNVDSIFIPQEIVFPPYTREEVFNILRDRVRVGFYPGVISDELLERITDHTMDTGDLRYGIDLLRVCGNLAEADASPVIGEEHLERALKSTGPVNLIHTVRTLNENEREFLRILADAGEDMTAGALYELFRESTGSSYSSFNRIIEKLEFLRLIDTRLTGKGVRGNSRILIPRFSREDLRRCPGF	soluble
MGSSHHHHHHSSGLVPRGSHMKWDYDLRCGEYTLNLNEKTLIMGILNVTPDSFSDGGSYNEVDAAVRHAKEMRDEGAHIIDIGGESTRPGFAKVSVEEEIKRVVPMIQAVSKEVKLPISIDTYKAEVAKQAIEAGAHIINDIWGAKAEPKIAEVAAHYDVPIILMHNRDNMNYRNLMADMIADLYDSIKIAKDAGVRDENIILDPGIGFAKTPEQNLEAMRNLEQLNVLGYPVLLGTSRKSFIGHVLDLPVEERLEGTGATVCLGIEKGCEFVRVHDVKEMSRMAKMMDAMIGKGVK	soluble
MGSSHHHHHHSSGLVPRGSHMLEADPLLAQLKQQLHSQTPRAEGVVKATEKGFGFLEVDAQKSYFIPPPQMKKVMHGDRIIAVIHSEKERESAEPEELVEPFLTRFVGKVQGKNDRLAIVPDHPLLKDAIPCRAARGLNHEFKEGDWAVAEMRRHPLKGDRSFYAELTQYITFGDDHFVPWWVTLARHNLEKEAPDGVATEMLDEGLVREDLTALDFVTIDSASTEDMNDALFAKALPDDKLQLIVAIADPTAWIAEGSKLDKAAKIRAFTNYLPGFNIPMLPRELSDDLCSLRANEVRPVLACRMTLSADGTIEDNIEFFAATIESKAKLVYDQVSDWLENTGDWQPESEAIAEQVRLLAQICQRRGEWRHNHALVFKDRPDYRFILGEKGEVLDIVAEPRRIANRIVEEAMIAANICAARVLRDKLGFGIYNVHMGFDPANADALAALLKTHGLHVDAEEVLTLDGFCKLRRELDAQPTGFLDSRIRRFQSFAEISTEPGPHFGLGLEAYATWTSPIRKYGDMINHRLLKAVIKGETATRPQDEITVQMAERRRLNRMAERDVGDWLYARFLKDKAGTDTRFAAEIVDISRGGMRVRLVDNGAIAFIPAPFLHAVRDELVCSQENGTVQIKGETVYKVTDVIDVTIAEVRMETRSIIARPVA	soluble
MGSSHHHHHHSSGLVPRGSHMSISRFGVNTENEDHLAKELEDLNKWGLNIFNVAGYSHNRPLTCIMYAIFQERDLLKTFRISSDTFITYMMTLEDHYHSDVAYHNSLHAADVAQSTHVLLSTPALDAVFTDLEILAAIFAAAIHDVDHPGVSNQFLINTNSELALMYNDESVLENHHLAVGFKLLQEEHCDIFMNLTKKQRQTLRKMVIDMVLATDMSKHMSLLADLKTMVETKKVTSSGVLLLDNYTDRIQVLRNMVHCADLSNPTKSLELYRQWTDRIMEEFFQQGDKERERGMEISPMCDKHTASVEKSQVGFIDYIVHPLWETWADLVQPDAQDILDTLEDNRNWYQSMIPQSPSPPLDEQNRDCQGLMEKFQFELTLDEEDSEGPEKEGEGHS	soluble
MGSSHHHHHHSSGLVPRGSHMSQFSFTKMHGLGNSYIYVNMFEEQIPEEDLALVAEKVSNINTGIGADGMILICPSDVAPVKMRMFNNDGSEGKSCGNGLRCVAKYAYEHKLVEDTVFTIETLAGIVTAEVTVEEGKVTLAKIDMGAPRLTRAEIPMLGEGETPFIRENFLYNNHRYAFTAVSMGNPHAVIFVDDVEQAPLTTLGPVLETHEMFPERVNVEFIEILNEEEMNFRVWERGSGVTQACGTGACAAVVASILNGKMERGKEITVHLAGGDLMIAWTEEGNVLMKGPAEVICRGVYEYKIEA	soluble
MGSSHHHHHHSSGLVPRGSHMSRAYDLVVLGAGSGGLEAGWNAAVTHKKKVAVVDVQATHGPPLFAALGGTCVNVGCVPKKLMVTGAQYMDLIRESGGFGWEMDRESLCPNWKTLIAAKNKVVNSINESYKSMFADTEGLSFHMGFGALQDAHTVVVRKSEDPHSDVLETLDTEYILIATGSWPTRLGVPGDEFCITSNEAFYLEDAPKRMLCVGGGYIAVEFAGIFNGYKPCGGYVDLCYRGDLILRGFDTEVRKSLTKQLGANGIRVRTNLNPTKITKNEDGSNHVHFNDGTEEDYDQVMLAIGRVPRSQALQLDKAGVRTGKNGAVQVDAYSKTSVDNIYAIGDVTNRVMLTPVAINEGAAFVETVFGGKPRATDHTKVACAVFSIPPIGTCGMTEEEAAKNYETVAVYASSFTPLMHNISGSKHKEFMIRIITNESNGEVLGVHMLGDSAPEIIQSVGICMKMGAKISDFHSTIGVHPTSAEELCSMRTPAYFYESGKRVEKLSSNL	soluble
